This note sets out measurements from paper PMC9363410.

Assay [1] concerns the target OsOTUB1-cat (OsOTUB1 residues 74 to 324, catalytic domain) (Oryza sativa). Kind of assay: cross-linking; 20 µM DUB with 100 µM Ub-PA in gel filtration buffer (50 mM Tris-HCl pH 8, 150 mM NaCl, 2 mM DTT), 37 °C, samples at time points, SDS-PAGE, Coomassie. (In gel filtration, larger molecules generally elute earlier.)
For assay [2] the target is unchanged.

As for C-terminally propargylated Ub (Ub-PA), the percent of Ub-PA crosslinked in 1 min in assay [1] was over 90%.
As to “Met1-diUb Q2A^prox (from UniProt P0CG48 1-76) (natural protein)”, in assay [2], the KM of OsOTUB1-cat for the variant, fold reduction of affinity against Met1-diUb WT (Michaelis-Menten kinetics by HPLC, two replicates) fell in the range of 3.65 to 4.3 fold.
In the case of “Met1-diUb Q2E^prox (from UniProt P0CG48 1-76) (natural protein)”, the KM of OsOTUB1-cat for the variant, fold reduction of affinity against Met1-diUb WT (Michaelis-Menten kinetics by HPLC, two replicates) in assay [2] was in the range of 4.2 to 6.23 fold.
Turning to “Met1-diUb Q2H^prox (from UniProt P0CG48 1-76) (natural protein)”, in assay [2], the KM of OsOTUB1-cat for the variant, fold reduction of affinity against Met1-diUb WT (Michaelis-Menten kinetics by HPLC, two replicates) lay within 1.45 to 1.58 fold.
Regarding “Met1-diUb Q2N^prox (from UniProt P0CG48 1-76) (natural protein)”, the KM of OsOTUB1-cat for the variant, fold reduction of affinity against Met1-diUb WT (Michaelis-Menten kinetics by HPLC, two replicates) in assay [2] was in the range of 1.52 to 1.91 fold.
